The results in this text go back to patent CN115991785A (SHANGHAI MIAOJU BIOTECHNOLOGY CO LTD; UNIV SHANGHAI JIAOTONG, dated 2023).

For experiment [1], the target named is CD34-Fc抗原 (CD34-Fc antigen). The experiment is described as follows: SPR (Biacore, CM5 chip, amine coupling, 1:1 binding model).
Experiment [2] has as its target T1, MATN3-Fc抗原 (MATN3-Fc antigen) (human, UniProt O15232 29-486, limits assumed).
T1 construct: not shown: Fc part
T1 sequence (looked up): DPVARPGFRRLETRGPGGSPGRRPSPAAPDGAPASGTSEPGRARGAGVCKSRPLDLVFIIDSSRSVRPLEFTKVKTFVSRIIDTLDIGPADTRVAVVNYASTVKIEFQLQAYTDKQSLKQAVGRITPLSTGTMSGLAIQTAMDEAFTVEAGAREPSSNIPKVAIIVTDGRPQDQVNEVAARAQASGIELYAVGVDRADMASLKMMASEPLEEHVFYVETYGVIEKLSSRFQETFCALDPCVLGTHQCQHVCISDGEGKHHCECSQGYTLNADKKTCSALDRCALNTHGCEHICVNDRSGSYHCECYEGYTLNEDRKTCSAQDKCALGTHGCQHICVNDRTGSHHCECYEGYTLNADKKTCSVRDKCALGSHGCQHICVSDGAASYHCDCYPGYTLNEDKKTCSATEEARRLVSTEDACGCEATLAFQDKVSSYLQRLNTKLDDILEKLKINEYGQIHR
The experiment is described as above.

CD34-Fc抗原 (CD34-Fc antigen), sequence (P28906 32-290): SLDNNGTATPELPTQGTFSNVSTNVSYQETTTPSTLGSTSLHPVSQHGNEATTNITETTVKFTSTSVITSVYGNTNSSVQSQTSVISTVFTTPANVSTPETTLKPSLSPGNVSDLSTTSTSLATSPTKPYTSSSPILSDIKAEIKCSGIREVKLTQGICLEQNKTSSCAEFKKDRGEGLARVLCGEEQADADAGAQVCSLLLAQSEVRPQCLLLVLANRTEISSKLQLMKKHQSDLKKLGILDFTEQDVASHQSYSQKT

B1: CD34×MATN3双特异性抗体 (CD34×MATN3 bispecific antibody, IgG1-scFv form) (bispecific antibody)
chain 1: EIQLQQSGPELMKPGASVKISCKASGYSFTSYYMHWVKQSQGKSLEWIGFIDPFNGGITYNQKFKGKATLTVDRSSSTAYMHLRSLTSEDSAVYYCARCYYNYDDEGRAMDYWGQGTSVTVSS
chain 2: DIQMTQSPSSLSASLGERVSLTCRASQDIGSSLNWLQQGPDGTFKRLIYATSSLDSSVPKRFSGSRSGSDYSLTISSLESEDFVDYYCLQYASSPYTFGGGTKLEIKR
chain 3: EVQLVQSGAEVKKPGASVKVSCKASGGTFSSYAISWVRQAPGQGLEWMGGIIPIFGTANYAQKFQGRVTITADKSTSTAYMELSSLRSEDTAVYYCARGQGYWFDPWGQGTLVTVSS
chain 4: DVQLTQSPSSLSASVGDRVTITCQASQDISNYLNWYQQKPGKAPKLLIYDASNLETGVPSRFSGSGSGTDFTFTISSLQPEDIATYYCQQYDNLPLTFGGGTKLEIKR
For B1, the dissociation constant Kd (as a rule, the constant that tells how readily two partners part at equilibrium) in experiment [1] came out at 8.53 nM; in experiment [2], 0.00895 nM.
